Molecular target: synthetic peptides derived from the caveolin scaffolding domain (CSD)

B1: endothelial nitric oxide synthase (eNOS), endogenous, human umbilical vein endothelial cells (HUVECs) (protein)
chain: GNLKSVAQEPGPPCGLGLGLGLGLCGKQGPATPAPEPSRAPASLLPPAPEHSPPSSPLTQPPEGPKFPRVKNWEVGSITYDTLSAQAQQDGPCTPRRCLGSLVFPRKLQGRPSPGPPAPEQLLSQARDFINQYYSSIKRSGSQAHEQRLQEVEAEVAATGTYQLRESELVFGAKQAWRNAPRCVGRIQWGKLQVFDARDCRSAQEMFTYICNHIKYATNRGNLRSAITVFPQRCPGRGDFRIWNSQLVRYAGYRQQDGSVRGDPANVEITELCIQHGWTPGNGRFDVLPLLLQAPDDPPELFLLPPELVLEVPLEHPTLEWFAALGLRWYALPAVSNMLLEIGGLEFPAAPFSGWYMSTEIGTRNLCDPHRYNILEDVAVCMDLDTRTTSSLWKDKAAVEINVAVLHSYQLAKVTIVDHHAATASFMKHLENEQKARGGCPADWAWIVPPISGSLTPVFHQEMVNYFLSPAFRYQPDPWKGSAAKGTGITRKKTFKEVANAVKISASLMGTVMAKRVKATILYGSETGRAQSYAQQLGRLFRKAFDPRVLCMDEYDVVSLEHETLVLVVTSTFGNGDPPENGESFAAALMEMSGPYNSSPRPEQHKSYKIRFNSISCSDPLVSSWRRKRKESSNTDSAGALGTLRFCVFGLGSRAYPHFCAFARAVDTRLEELGGERLLQLGQGDELCGQEEAFRGWAQAAFQAACETFCVGEDAKAAARDIFSPKRSWKRQRYRLSAQAEGLQLLPGLIHVHRRKMFQATIRSVENLQSSKSTRATILVRLDTGGQEGLQYQPGDHIGVCPPNRPGLVEALLSRVEDPPAPTEPVAVEQLEKGSPGGPPPGWVRDPRLPPCTLRQALTFFLDITSPPSPQLLRLLSTLAEEPREQQELEALSQDPRRYEEWKWFRCPTLLEVLEQFPSVALPAPLLLTQLPLLQPRYYSVSSAPSTHPGEIHLTVAVLAYRTQDGLGPLHYGVCSTWLSQLKPGDPVPCFIRGAPSFRLPPDPSLPCILVGPGTGIAPFRGFWQERLHDIESKGLQPTPMTLVFGCRCSQLDHLYRDEVQNAQQRGVFGRVLTAFSREPDNPKTYVQDILRTELAAEVHRVLCLERGHMFVCGDVTMATNVLQTVQRILATEGDMELDEAGDVIGVLRDQQRYHEDIFGLTLRTQEVTSRIRTQSFSLQERQLRGAVPWAFDPPGSDTNSP
In the case of B1, the “phosphorylation of eNOS (Ser1177) in atorvastatin-treated HUVECs, immunoblot” value is reported as “blocked the phosphorylation of eNOS”.

Source: patent US20040110684
